Laboratory results from patent publication US20050036993A1, “Immune activation by double-stranded polynucleotides” (priority 1998, published 2005).

Columns and labels:
[1] = test system: LMP2, TAP-1, invariant chain (Ii), HLA-DM, B7, CIITA, RFX5, IRF-1, PKR, IFN; experiment: Northern analysis of genes responsible for antigen presentation in FRTL-5 cells; format: cell-based, rat
Experimental: In some experiments, cells were treated with 100 U/ml rat KIFN for the last 48 hours of culture.
Transfection—All procedures used 10 cm dishes and transfection with Lipofectamine Plus (GIBCO BRL, Gaithersburg, Md.). […] Transfections with Lipofectamine (GIBCO BRL, Gaithersburg, Md.), with DEAE dextran, or using electroporation, performed as in Example 1, yielded the same results.
Nucleic Acids—The following polynucleotides were used in these experiments, both made by Pharmacia Biotech, Piscataway, N.J.: poly(dI)/poly(dC) and poly(I)/poly(C). The same results were obtained, however, using sonicated salmon sperm DNA (Stratagene, La Jolla, Calif.), bacterial DNA or calf thymus DNA (Sigma, St. Louis, Mo.), and FRTL-5 cell genomic DNA. […] Viral DNA from Human Herpes Simplex virus and viral DNA oligonucleotides from HIV, HTLV-1, Foamy virus, and cytomegalic virus (CMV) as well as the plasmid vectors pcDNA3 and pRc/RSV, used with or without methylation, also duplicated the results with the ds synthetic polynucleotides.
The probe for rat CIITA is a cloned rat Type III CIITA cDNA fragment in pcDNA3 (K. Suzuki et al., manuscript in preparation). EcoRI is used to release a 4098 bp fragment as the probe.

FRTL-5 rat thyroid cells = settings: literature; cited from earlier work
[2] = test system: Stat 1 (Tyr 701), Stat 3 (Tyr 705); experiment: Western blot of phosphorylated Stat 1, Stat 3 and total Stat 1 in FRTL-5 cells; format: cell-based, rat
Experimental: SDS-polyacrylamide gel electrophoresis and Western blotting—Transfected FRTL-5 cells or FRTL-5 cells treated with KIFN (100 U/ml protein) which had been grown in 100 mm dishes (Nalge Nunc International), were placed on ice before harvesting, washed with ice-cold Dulbecco's PBS (DPBS), released by gentle scraping with a rubber policeman, and collected by low-speed centrifugation at 833×g for 10 min in a Sorvall table-top centrifuge (rotor H-1000, Dupont Company, Wilmington Del.). After a second washing in DPBS, cells were resuspended in cold lysis buffer [50 mM HEPES pH 7.0,2 mM MgCl2; 250 mM NaCl; 0.1 mM EDTA; 0.1 mM EGTA; 1 mM DTT; 2 mM Na3VO4; 10 mM Na4P2O7; 10 mM NaF; 0.1% NP-40; 0.5 mM p-amidinophenyl methanesulfonyl fluoride hydrochloride (p-APMSF) plus a protease inhibitor cocktail ([…]; 2.5 mg/ml of antipain; 2.5 mg/ml of chymostatin; 0.25 mg/ml leupeptin; 0.25 mg/ml antipain]. The cells were allowed to lyse on ice for 60 min, after which they were vortexed vigorously and centrifuged at 4° C. and at 12,000 rpm in a microcentrifuge for 10 min. The supernatant was collected and frozen in aliquots at −70° C. […] The membrane was again washed and protein detected by incubation for 1 min with ECL detection reagent (Amersham, Arlington Heights, Ill.) followed by exposure to X-ray film. […]

B1: KIFN: K-interferon (gamma interferon, character lost), rat recombinant, 100 U/ml (protein, UniProt P01581 23-156, looked up)
Interferon gamma: QGTLIESLESLKNYFNSSSMDAMEGKSLLLDIWRNWQKDGNTKILESQIISFYLRLFEVLKDNQAISNNISVIESHLITNFFSNSKAKKDAFMSIAKFEVNNPQIQHKAVNELIRVIHQLSPESSLRKRKRSRC
[1]; 5 Tg dsDNA or 100 U/ml KIFN, 3 to 72 hours
  expression of genes responsible for antigen presentation: induced
[1]; 100 U/ml KIFN
  induction of CIITA, RFX5 and IRF-1: induced
FRTL-5 rat thyroid cells
  cell cycle progression: inhibits progression
[2]; FRTL-5 cells, dsDNA within 6 hours of transfection
  phosphorylation of STAT 1 and STAT 3: significantly lower and more delayed in time
[2]; readily measurable at 12 hours
  total STAT 1 protein: greater and more advanced in time
